± gives the uncertainty stated by the source.

Here are results for 78 sequences from the supplement of paper PMC7877785.

This data set in a line: self-splicing fitness, log relative to wild type (ln ratio); higher = more splicing; Tetrahymena group I intron in knt gene, E. coli kanamycin selection, DiMSum; sequences stand for … in CUCUCU…GGAGGGAAAAGUUAUCAGGCAUGCACCUGGUAGCUAGUCUUUAAACCAAUAGAUUGCAUCGGUUUAAAAGGCAAGACCGUCAAAUUGCGGGAAAGGGGUCAACAGCCGUUCAGUACCAAGUCUCAGGGGAAACUUUGAGAUGGCCUUGCAAAGGGUAUGGUAAUAAGCUGACGGACAUGGUCCUAACCACGCAGCCAAGUCCUAAGUCAACAGAUCUUCUGUUGAUAUGGAUGCAGUUCACAGACUAAAUGUCGGUCGGGGAAGAUGUAUUCUUCUCAUAAGAUAUAGUCGGACCUCUCCUUAAUGGGAGCUAGCGGAUGAAGUGAUGCAACACUGGAGCCGCUGGGAACUAAUUUGUAUGCGAAAGUAUAUUGAUUAGUUUUGGAGUACUCGUGGUCG
Summed up:
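Colonies from six replicate transformations of E. coli BL21(DE3) were pooled and amplicon-sequenced on an Illumina HiSeq 2500. The library placed an intron with all eight P1ex-region nucleotides randomised inside the knt kanamycin-resistance gene on pET-22b(+), and cells grew overnight at 37°C or 30°C on LB agar with or without 25 μg/mL kanamycin (plus 100 μg/mL carbenicillin, 50 μM IPTG, 0.2% rhamnose). Fitness is the DiMSum error-weighted combination of wild-type-normalised replicate fold changes, kanamycin versus none.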

For the sequence GUAUAGCAAUAUUACGCGAU, the “self-splicing fitness (ln)” value is -2.03 ± 0.24 (30 °C) and -1.73 ± 0.26 (37 °C). For GUAUAGCAAUAUUACGCGCG the same measures were -1.55 ± 0.14 and -0.678 ± 0.15.

In the case of GUAUAGCAAUAUUACGCGUU, the “self-splicing fitness (ln)” value runs as follows: (30 °C) -1.21 ± 0.11; (37 °C) -1.33 ± 0.17.

Turning to GUAUAGCAAUAUUACGCUAA, the “self-splicing fitness (ln)” value is, setting by setting: (30 °C) -2.52 ± 0.2; (37 °C) -1.57 ± 0.16. In the same order, the values of GUAUAGCAAUAUUACGGACA are -2.7 ± 0.27 and -1.1 ± 0.15. For GUAUAGCAAUAUUACGGACU the same measures were -1.83 ± 0.16 and -1.27 ± 0.3. As to GUAUAGCAAUAUUACGGAUA, the “self-splicing fitness (ln)” value runs as follows: (30 °C) -1.43 ± 0.27; (37 °C) -1.55 ± 0.28. In the same order, the values of GUAUAGCAAUAUUACGGCGA are -1.21 ± 0.097 and -0.087 ± 0.1. For GUAUAGCAAUAUUACGGCUC the same measures were 0.0185 ± 0.15 and 0.629 ± 0.15. In the same order, the values of GUAUAGCAAUAUUACGGCUU are -0.746 ± 0.13 and 1.21 ± 0.2. Take GUAUAGCAAUAUUACGGUCG: the “self-splicing fitness (ln)” value is, setting by setting: (30 °C) -2.06 ± 0.15; (37 °C) 0.0791 ± 0.15. For GUAUAGCAAUAUUACGUCCA the same measures were -1.58 ± 0.26 and -0.506 ± 0.23. In the same order, the values of GUAUAGCAAUAUUACGUCCC are -1.75 ± 0.12 and -0.594 ± 0.16. In the same order, the values of GUAUAGCAAUAUUACGUCUC are -1.21 ± 0.15 and -0.282 ± 0.15. With GUAUAGCAAUAUUACGUUAU, the “self-splicing fitness (ln)” value is -3.09 ± 0.36 (30 °C) and -1.99 ± 0.21 (37 °C). For GUCAAGCAAUAUUACGAGUC the same measures were -3.75 ± 0.2 and -2.87 ± 0.26.

As to GUCAAGCAAUAUUACGCAGA, the “self-splicing fitness (ln)” value was -3.23 ± 0.24 (30 °C) and -2.79 ± 0.3 (37 °C). For GUCAAGCAAUAUUACGCAUU the same measures were -1.21 ± 0.089 and -1.02 ± 0.13. Take GUCAAGCAAUAUUACGCGCA: the “self-splicing fitness (ln)” value reads like this: (30 °C) -0.483 ± 0.097; (37 °C) -0.0303 ± 0.11. Take GUCAAGCAAUAUUACGCUCA: the “self-splicing fitness (ln)” value (30 °C) is -1.42 ± 0.11 and the “self-splicing fitness (ln)” value (37 °C) is -0.0833 ± 0.13. For GUCAAGCAAUAUUACGGACG the same measures were -3.64 ± 0.27 and -2.01 ± 0.13. As for GUCAAGCAAUAUUACGGAGG, the “self-splicing fitness (ln)” value (37 °C) is -2.5 ± 0.25.

Regarding GUCAAGCAAUAUUACGGAGU, the “self-splicing fitness (ln)” value (30 °C) is -2.1 ± 0.12 and the “self-splicing fitness (ln)” value (37 °C) was -0.536 ± 0.12. For GUCAAGCAAUAUUACGGAUU the same measures were -2.73 ± 0.12 and -1.12 ± 0.12. In the same order, the values of GUCAAGCAAUAUUACGGCCU are -3.17 ± 0.22 and -1.34 ± 0.21. For GUCAAGCAAUAUUACGGGAA the same measures were -3.1 ± 0.19 and -0.398 ± 0.12.

As to GUCAAGCAAUAUUACGGGAC, the “self-splicing fitness (ln)” value (30 °C) is -2.81 ± 0.5.

Consider GUCAAGCAAUAUUACGGUCC, for which the “self-splicing fitness (ln)” value (30 °C) was -2.23 ± 0.27 and the “self-splicing fitness (ln)” value (37 °C) is -1.09 ± 0.25. For GUCAAGCAAUAUUACGGUUG the same measures were -5.24 ± 0.39 and -3.24 ± 0.21.

For the sequence GUCAAGCAAUAUUACGUACU, the “self-splicing fitness (ln)” value runs as follows: (30 °C) -1.98 ± 0.13; (37 °C) -0.175 ± 0.12. In the same order, the values of GUCAAGCAAUAUUACGUCAA are -2.48 ± 0.1 and -1.87 ± 0.11. As for GUCAAGCAAUAUUACGUCUU, the “self-splicing fitness (ln)” value runs as follows: (30 °C) -2.96 ± 0.071; (37 °C) -1.58 ± 0.066.

Take GUCAAGCAAUAUUACGUUCA: the “self-splicing fitness (ln)” value was -1.13 ± 0.1 (30 °C) and -0.987 ± 0.16 (37 °C).

Regarding GUCAAGCAAUAUUACGUUGC, the “self-splicing fitness (ln)” value is, setting by setting: (30 °C) -5.11 ± 0.34; (37 °C) -2.28 ± 0.21. In the same order, the values of GUCAAGCAAUAUUACGUUUC are -2.79 ± 0.13 and -2.39 ± 0.16. In the same order, the values of GUCCAGCAAUAUUACGACGA are -2.69 ± 0.12 and -0.712 ± 0.091. As for GUCCAGCAAUAUUACGACGC, the “self-splicing fitness (ln)” value is -0.776 ± 0.094 (30 °C) and 0.435 ± 0.12 (37 °C). In the same order, the values of GUCCAGCAAUAUUACGACUU are -1.65 ± 0.078 and -0.203 ± 0.085.

For the sequence GUCCAGCAAUAUUACGAGUG, the “self-splicing fitness (ln)” value (30 °C) was -2.52 ± 0.11 and the “self-splicing fitness (ln)” value (37 °C) was -1.59 ± 0.1.

GUCCAGCAAUAUUACGAUAA: the “self-splicing fitness (ln)” value reads like this: (30 °C) -1.3 ± 0.087; (37 °C) -0.506 ± 0.11. In the same order, the values of GUCCAGCAAUAUUACGAUGC are -0.013 ± 0.081 and 0.389 ± 0.1. Consider GUCCAGCAAUAUUACGCAUC, for which the “self-splicing fitness (ln)” value is, setting by setting: (30 °C) -0.179 ± 0.089; (37 °C) 0.142 ± 0.12. In the same order, the values of GUCCAGCAAUAUUACGCAUG are -2.14 ± 0.079 and -1.66 ± 0.082. For GUCCAGCAAUAUUACGCAUU the same measures were -0.492 ± 0.053 and 0.587 ± 0.073. GUCCAGCAAUAUUACGCCCA: the “self-splicing fitness (ln)” value by setting is: (30 °C) 0.224 ± 0.26; (37 °C) -0.451 ± 0.21.

With GUCCAGCAAUAUUACGCCGC, the “self-splicing fitness (ln)” value runs as follows: (30 °C) -4.18 ± 0.33; (37 °C) -2.58 ± 0.27. Regarding GUCCAGCAAUAUUACGCCUG, the “self-splicing fitness (ln)” value was -2.5 ± 0.2 (30 °C) and -0.12 ± 0.21 (37 °C). For GUCCAGCAAUAUUACGCGCU the same measures were -2.67 ± 0.25 and -2.51 ± 0.31. Take GUCCAGCAAUAUUACGGACG: the “self-splicing fitness (ln)” value was -2.99 ± 0.26 (30 °C) and -0.833 ± 0.18 (37 °C).

For GUCCAGCAAUAUUACGGACU, the “self-splicing fitness (ln)” value reads like this: (30 °C) -3.74 ± 0.29; (37 °C) -3.05 ± 0.4. For GUCCAGCAAUAUUACGGCGU the same measures were -0.257 ± 0.078 and 0.0026 ± 0.099. In the same order, the values of GUCCAGCAAUAUUACGGGGC are -4.08 ± 0.27 and -1.8 ± 0.2. On to GUCCAGCAAUAUUACGGUGC, for which the “self-splicing fitness (ln)” value was -0.903 ± 0.059 (30 °C) and -0.726 ± 0.071 (37 °C). On to GUCCAGCAAUAUUACGUAAG, for which the “self-splicing fitness (ln)” value (30 °C) is -0.607 ± 0.071 and the “self-splicing fitness (ln)” value (37 °C) was -0.277 ± 0.11. As for GUCCAGCAAUAUUACGUAAU, the “self-splicing fitness (ln)” value by setting is: (30 °C) -0.156 ± 0.07; (37 °C) 0.76 ± 0.081.

Consider GUCCAGCAAUAUUACGUACC, for which the “self-splicing fitness (ln)” value is -1.08 ± 0.15 (30 °C) and -1.74 ± 0.24 (37 °C). In the same order, the values of GUCCAGCAAUAUUACGUAGG are -2.31 ± 0.13 and -1.84 ± 0.15. Take GUCCAGCAAUAUUACGUAUG: the “self-splicing fitness (ln)” value (30 °C) was -2.76 ± 0.1 and the “self-splicing fitness (ln)” value (37 °C) was -1.06 ± 0.11. Take GUCGAGCAAUAUUACGAGCU: under “30 °C”, the “self-splicing fitness (ln)” value is -2 ± 0.42. With GUCGAGCAAUAUUACGAGUA, the “self-splicing fitness (ln)” value was -2.24 ± 0.45 (30 °C) and -1.13 ± 0.25 (37 °C). For GUCGAGCAAUAUUACGAUAA the same measures were -1.44 ± 0.26 and -0.0833 ± 0.2.

With GUCGAGCAAUAUUACGAUAG, the “self-splicing fitness (ln)” value (30 °C) is -4.14 ± 0.47.

For the sequence GUCGAGCAAUAUUACGAUCA, the “self-splicing fitness (ln)” value runs as follows: (30 °C) -1 ± 0.19; (37 °C) -0.515 ± 0.21. In the same order, the values of GUCGAGCAAUAUUACGAUUG are -4.1 ± 0.33 and -3.26 ± 0.26. GUCGAGCAAUAUUACGCCCU: the “self-splicing fitness (ln)” value (37 °C) is -0.627 ± 0.41. Take GUCGAGCAAUAUUACGCGCC: the “self-splicing fitness (ln)” value runs as follows: (30 °C) -2.74 ± 0.24; (37 °C) -1.87 ± 0.42. In the same order, the values of GUCGAGCAAUAUUACGCUAG are -3.53 ± 0.21 and -1.93 ± 0.15.

In the case of GUCGAGCAAUAUUACGCUAU, the “self-splicing fitness (ln)” value runs as follows: (30 °C) -2.01 ± 0.12; (37 °C) -1.36 ± 0.12. For GUCGAGCAAUAUUACGCUCG, the “self-splicing fitness (ln)” value (30 °C) was -1.76 ± 0.37. For GUCGAGCAAUAUUACGCUUA, the “self-splicing fitness (ln)” value (30 °C) is -1.12 ± 0.13 and the “self-splicing fitness (ln)” value (37 °C) is -0.065 ± 0.12. With GUCGAGCAAUAUUACGCUUG, the “self-splicing fitness (ln)” value (37 °C) was -2.36 ± 0.33. As to GUCGAGCAAUAUUACGGAAU, the “self-splicing fitness (ln)” value is, setting by setting: (30 °C) -2.48 ± 0.16; (37 °C) -1.12 ± 0.14. In the same order, the values of GUCGAGCAAUAUUACGGAGC are -2.93 ± 0.2 and -1.24 ± 0.15. With GUCGAGCAAUAUUACGGCAG, the “self-splicing fitness (ln)” value (37 °C) is -2.81 ± 0.44. With GUCGAGCAAUAUUACGGGAA, the “self-splicing fitness (ln)” value was -2.39 ± 0.34 (30 °C) and -1.63 ± 0.37 (37 °C). For GUCGAGCAAUAUUACGGGCG the same measures were -2.88 ± 0.11 and -1.36 ± 0.12. Consider GUCGAGCAAUAUUACGGGGC, for which the “self-splicing fitness (ln)” value (37 °C) was -1.57 ± 0.28. For the sequence GUCGAGCAAUAUUACGUGGU, the “self-splicing fitness (ln)” value was -3.5 ± 0.19 (30 °C) and -2.8 ± 0.19 (37 °C).
